The target of the assay is HLA-A*02:01 (Homo sapiens, UniProt P04439, D140Y/D185E/D98H/E176V/E277Q/G131W/G231S/I119V/I121R/I166T/I218V/L300P/L318F/N151K/N90K/P208A/P217A/Q86G/Q94H/R138H/R169H/T345S). Kind of assay: MHC binding assay (UV-ligand exchange, beta2m ELISA). Conditions: binding to HLA-A*02:01 ranged by peptide exchange yield (UV-ligand exchange, β2m ELISA). The procedure, abridged: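 UV-cleavable ligand in peptide-MHC complexes was exchanged for test peptide. Exchange yield came from an ELISA on streptavidin-captured complexes diluted 100 fold, detecting β2m with HRP anti-β2m (2 ug/ml, 1 h, 37° C.), TMB, A450.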
Regarding “285 (QLLHVGVTV; listed as Homo sapiens) [compound 285]”, the Peptide exchange result is given as ““+++” (≥50 = +++)”. Consider “286 (YLFPGIPEL; listed as Homo sapiens) [compound 286]”, for which the Peptide exchange entry is on record as ““+++” (≥50 = +++)”.

As for “287 (FLNEFFLNV; listed as Homo sapiens) [compound 287]”, the Peptide exchange entry was ““+++” (≥50 = +++)”. Turning to “288 (NLINEINGV; listed as Homo sapiens) [compound 288]”, the Peptide exchange entry is recorded as ““+++” (≥50 = +++)”. With “289 (VLLEIEDLQV; listed as Homo sapiens) [compound 289]”, the Peptide exchange entry is reported as ““++++” (≥75% = ++++)”. For “295 (VLDRESPNV; listed as Homo sapiens) [compound 295]” the value was ““+++” (≥50 = +++)”; for “296 (FMEGAIIYV; listed as Homo sapiens) [compound 296]”, ““+++” (≥50 = +++)”. On to “297 (VLADIELAQA; listed as Homo sapiens) [compound 297]”, for which the Peptide exchange result was ““+++” (≥50 = +++)”. With “298 (VMITKLVEV; listed as Homo sapiens) [compound 298]” the entry was ““+++” (≥50 = +++)”; with “299 (YLLETSGNL; listed as Homo sapiens) [compound 299]”, ““+++” (≥50 = +++)”; with “300 (ALLGQTFSL; listed as Homo sapiens) [compound 300]”, ““+++” (≥50 = +++)”. With “301 (FLVEDLVDSL; listed as Homo sapiens) [compound 301]” the entry was ““+++” (≥50 = +++)”; with “302 (ALLQEGEVYSA; listed as Homo sapiens) [compound 302]”, ““+++” (≥50 = +++)”; with “303 (AILPQLFMV; listed as Homo sapiens) [compound 303]”, ““++++” (≥75% = ++++)”.

In the case of “304 (MTLGQIYYL; listed as Homo sapiens) [compound 304]”, the Peptide exchange entry is ““+++” (≥50 = +++)”. For “305 (SIANFSEFYV; listed as Homo sapiens) [compound 305]” the value was ““++++” (≥75% = ++++)”; for “306 (ALVNVQIPL; listed as Homo sapiens) [compound 306]”, ““+++” (≥50 = +++)”. For “307 (ALPVSLPQI; listed as Homo sapiens) [compound 307]” the value was ““+++” (≥50 = +++)”.

As to “308 (SQYSGQLHEV; listed as Homo sapiens) [compound 308]”, the Peptide exchange entry is ““+++” (≥50 = +++)”. For “309 (GLFDGVPTTA; listed as Homo sapiens) [compound 309]” the value was ““+++” (≥50 = +++)”. With “310 (FLVDTPLARA; listed as Homo sapiens) [compound 310]” the entry was ““++++” (≥75% = ++++)”; with “311 (RLYTGMHTV; listed as Homo sapiens) [compound 311]”, ““+++” (≥50 = +++)”. With “312 (IISDLTIAL; listed as Homo sapiens) [compound 312]” the entry was ““+++” (≥50 = +++)”. As to “313 (VLFDDELLMV; listed as Homo sapiens) [compound 313]”, the Peptide exchange result was ““+++” (≥50 = +++)”. For “314 (ALIAEGIALV; listed as Homo sapiens) [compound 314]” the value was ““+++” (≥50 = +++)”; for “315 (YLQDVVEQA; listed as Homo sapiens) [compound 315]”, ““+++” (≥50 = +++)”; for “316 (ILLERLWYV; listed as Homo sapiens) [compound 316]”, ““+++” (≥50 = +++)”.

In the case of “317 (SLAALVVHV; listed as Homo sapiens) [compound 317]”, the Peptide exchange entry is ““+++” (≥50 = +++)”. For “318 (GLINTGVLSV; listed as Homo sapiens) [compound 318]” the value was ““++” (≥20% = ++)”. For “320 (KMFEFVEPLL; listed as Homo sapiens) [compound 320]”, the Peptide exchange result was ““++++” (≥75% = ++++)”. For “321 (GLFEDVTQPGILL; listed as Homo sapiens) [compound 321]” the value was ““++++” (≥75% = ++++)”; for “322 (TLMTSLPAL; listed as Homo sapiens) [compound 322]”, ““+++” (≥50 = +++)”. For the substance “324 (FLYDEIEAEV; listed as Homo sapiens) [compound 324]”, the Peptide exchange result is on record as ““+++” (≥50 = +++)”.

In the case of “325 (FIMPATVADATAV; listed as Homo sapiens) [compound 325]”, the Peptide exchange result was ““+++” (≥50 = +++)”. “326 (FLPEALDFV; listed as Homo sapiens) [compound 326]”: the Peptide exchange result is ““+++” (≥50 = +++)”.

Take “327 (GLAPFTEGISFV; listed as Homo sapiens) [compound 327]”: the Peptide exchange result is on record as ““+++” (≥50 = +++)”.

Take “328 (ALNDQVFEI; listed as Homo sapiens) [compound 328]”: the Peptide exchange result is reported as ““+++” (≥50 = +++)”.

For the substance “329 (FLVTLNNVEV; listed as Homo sapiens) [compound 329]”, the Peptide exchange result is on record as ““++++” (≥75% = ++++)”. With “330 (QLALKVEGV; listed as Homo sapiens) [compound 330]” the entry was ““+++” (≥50 = +++)”; with “331 (KVDTVWVNV; listed as Homo sapiens) [compound 331]”, ““+++” (≥50 = +++)”; with “332 (YLISELEAA; listed as Homo sapiens) [compound 332]”, ““+++” (≥50 = +++)”. For “333 (FLPDANSSV; listed as Homo sapiens) [compound 333]” the value was ““++” (≥20% = ++)”. For “334 (TLTKVLVAL; listed as Homo sapiens) [compound 334]” the value was ““+++” (≥50 = +++)”; for “335 (YSLSSVVTV; listed as Homo sapiens) [compound 335]”, ““+++” (≥50 = +++)”; for “336 (ILLTAIVQV; listed as Homo sapiens) [compound 336]”, ““+++” (≥50 = +++)”. On to “337 (HLLSELEAAPYL; listed as Homo sapiens) [compound 337]”, for which the Peptide exchange entry is reported as ““++++” (≥75% = ++++)”. For “339 (GLWEIENNPTVKA; listed as Homo sapiens) [compound 339]” the value was ““++++” (≥75% = ++++)”; for “340 (ALLSMTFPL; listed as Homo sapiens) [compound 340]”, ““++++” (≥75% = ++++)”; for “341 (SQIALNEKLVNL; listed as Homo sapiens) [compound 341]”, ““+++” (≥50 = +++)”.

As for “342 (HIYDKVMTV; listed as Homo sapiens) [compound 342]”, the Peptide exchange result was ““+++” (≥50 = +++)”.

As to “343 (SLLEVNEESTV; listed as Homo sapiens) [compound 343]”, the Peptide exchange entry was ““+++” (≥50 = +++)”. Regarding “344 (YLQDQHLLLTV; listed as Homo sapiens) [compound 344]”, the Peptide exchange result is ““+++” (≥50 = +++)”. For “345 (VIWKALIHL; listed as Homo sapiens) [compound 345]” the value was ““+++” (≥50 = +++)”; for “346 (LLDSKVPSV; listed as Homo sapiens) [compound 346]”, ““+++” (≥50 = +++)”. For “347 (SLFKHDPAAWEA; listed as Homo sapiens) [compound 347]” the value was ““++++” (≥75% = ++++)”. For “348 (ILLDVKTRL; listed as Homo sapiens) [compound 348]” the value was ““++++” (≥75% = ++++)”; for “349 (SLTEYLQNV; listed as Homo sapiens) [compound 349]”, ““++++” (≥75% = ++++)”. For “350 (ALLDVTHSELTV; listed as Homo sapiens) [compound 350]”, the Peptide exchange result is reported as ““+++” (≥50 = +++)”.

For “351 (SLIPNLRNV; listed as Homo sapiens) [compound 351]”, the Peptide exchange entry was ““+++” (≥50 = +++)”. For “352 (SLLELLHIYV; listed as Homo sapiens) [compound 352]” the value was ““+++” (≥50 = +++)”. With “353 (YLFEMDSSL; listed as Homo sapiens) [compound 353]” the entry was ““++” (≥20% = ++)”; with “354 (LILEGVDTV; listed as Homo sapiens) [compound 354]”, ““++” (≥20% = ++)”. With “355 (SIQQSIERLLV; listed as Homo sapiens) [compound 355]” the entry was ““++” (≥20% = ++)”; with “356 (KLLGKLPEL; listed as Homo sapiens) [compound 356]”, ““+++” (≥50 = +++)”; with “357 (SMHDLVLQV; listed as Homo sapiens) [compound 357]”, ““+++” (≥50 = +++)”.

“358 (ALDEYTSEL; listed as Homo sapiens) [compound 358]”: the Peptide exchange entry is ““++++” (≥75% = ++++)”.

Turning to “359 (YLLPESVDL; listed as Homo sapiens) [compound 359]”, the Peptide exchange result was ““+++” (≥50 = +++)”. With “361 (ALYELEGTTV; listed as Homo sapiens) [compound 361]” the entry was ““+++” (≥50 = +++)”; with “362 (TLYGLSVLL; listed as Homo sapiens) [compound 362]”, ““+++” (≥50 = +++)”; with “363 (KVLDVSDLESV; listed as Homo sapiens) [compound 363]”, ““++” (≥20% = ++)”.
